Measured values reported in the supplement of paper PMC10201428.
± gives the standard deviation of the averaged measurements.

Assays:
[1] = system: VchCAST RNA-guided transposition machinery (E. coli BL21(DE3) host, lacZ target); assay: relative integration efficiency (T-LR orientation) vs wild-type transposon end (log2 (normalized fold change)); transposon end mutated: right end (5 bp flank + 75 bp right end); higher = more efficient transposition
Method in brief: (§1)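 In E. coli BL21(DE3), a T7-driven effector plasmid was paired with a pUC57 mini-transposon donor containing 1549 left-end or 1849 right-end barcoded transposon variants. Cells grew on plates with 0.1 mM IPTG at 37°C for 18 h. Relative integration efficiency was derived from Illumina reads of genomic integration junctions against input plasmids, as a log-transformed output/input barcode fold change normalised to reference barcodes.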

[2] = system: VchCAST RNA-guided transposition machinery (E. coli BL21(DE3) host, lacZ target); assay: relative integration efficiency (T-RL orientation) vs wild-type transposon end (log2 (normalized fold change)); transposon end mutated: right end (5 bp flank + 75 bp right end); higher = more efficient transposition
Method in brief: as §1

Sequence | relative integration efficiency (log2) [1] | relative integration efficiency (log2) [2]
ACATTTGTTGATACAACCATAAAATGATAATTAATAATTATTCACCCATAAATTGATAATTATCACACCCATAAATTGATATTGCCTCTGATCATAGTCAGACCAACATTGCTACGACCCGTATTCG | -1.92 ± 0.46 | -3.976 ± 0.019
ACATTTGTTGATACAACCATAAAATGATAATTACACCCATAACGGTATAATTATCACACCCATAAATTGATATTGCCTCTGATCATAGTCAGACCAACATTGCTACGACCCGTATTCGCACCGACAC | -1.21 ± 0.31 | -1.01 ± 0.024
ACATTTGTTGATACACCCATAAATTGATAATTACACCCATAAATTGATATTGCTCACACCCATAAATTGATATTGCCTCTGATCATAGTCAGACCAACATTGCTACGACCCGTATTCGCACCGACAC | 0.393 ± 0.28 | -0.538 ± 0.15
ACATTTGTTGATACAACCATAACCTGATAATTACACCCATAAATTGATAATTATCACACCCATAAATTGATATTGCCTCTGATCATAGTCAGACCAACATTGCTACGACCCGTATTCGCACCGACAC | -0.337 ± 0.089 | -0.321 ± 0.01
ACATTTGTTGATACAACCATTAAATGGTAATTACACCCATAAATTGATAATTATCACACCCAATTTAACTATAACGCTCTGATCATAGTCAGACCAACATTGCTACGACCCGTATTCGCACCGACAC | 1.674 ± 0.011 | -1.34 ± 0.19
ACATTTGTTGATACAACCATAAAATGATAATTAATAATTATTTATAATCAGCAACTTAACCCACCCATAAATTGATAATTATCACACCCATAAATTGATATTGCCTCTGATCATAGTCAGACCAACA | 0.044 ± 0.09 | -3.06 ± 0.43
ACATTTGTTGATACAACCATAAAATGATAATTACAACCATAAAATGATAATTATCACACCCATAAATTGATATTGCCTCTGATCATAGTCAGACCAACATTGCTACGACCCGTATTCGCACCGACAC | -0.38 ± 0.42 | -0.0716 ± 0.12
ACATTTGTTGATACAACCATAAAATGATAATTAATAATTATTTATCACCCATAAATTGATAATTATCAACAAACGCCCGGTCGCGGTACTCTGATCATAGTCAGACCAACATTGCTACGACCCGTAT | 2.6 ± 0.053 | -0.654 ± 0.39
ACATTTGTTGATACAACCATAAAATCATCATTACCCCCATAAATTGATAATTATCCCACCCAATTTAACTATAACGCTCTGATCATAGTCAGACCAACATTGCTACGACCCGTATTCGCACCGACAC | 0.215 ± 0.23 | -3.815 ± 0.027
ACATTTGTTGATACAACCATAAGTTGATATTTTCACCCATAAATTGATATTGCTCAGTGGGTATTTAACTATAACGCTCTGATCATAGTCAGACCAACATTGCTACGACCCGTATTCGCACCGACAC | 2.31 ± 0.065 | -1.19 ± 0.12
ACATTTGTTGATACAACCATATATTGATATCTCCAACCATAAAATGATAATTATCACACCCATAAATTGATATTGCCTCTGATCATAGTCAGACCAACATTGCTACGACCCGTATTCGCACCGACAC | -0.381 ± 0.023 | -0.212 ± 0.018
ACATTTGTTGATACAACCATAAAATGATAATTACACCCATAAATTGATATTGCTCACAACCATAAGTTGATATTTTCTCTGATCATAGTCAGACCAACATTGCTACGACCCGTATTCGCACCGACAC | 0.538 ± 0.11 | -0.473 ± 0.17
ACATTTGTTGATACAACCATAAAATGATAATTAACAACATAAATTGATAATTATCACACCCATAAATTGATATTGCCTCTGATCATAGTCAGACCAACATTGCTACGACCCGTATTCGCACCGACAC | -0.921 ± 0.31 | -0.394 ± 0.018
ACATTTGCTGATAGAACCATTTAATGATAATAACACCCATAAAATGATAATTATCACACCCAATTTAACTATAACGCTCTGATCATAGTCAGACCAACATTGCTACGACCCGTATTCGCACCGACAC | -2.38 ± 0.95 | -3.66 ± 0.41
ACATTTGTTGATACAACCATAAAATGTTAATTACACCCATAAATTGTTAATTATCACACCCATAAATTGTTATTGCCTCTGATCATAGTCAGACCAACATTGCTACGACCCGTATTCGCACCGACAC | -0.437 ± 0.34 | -2.33 ± 0.29
ACATTTGTTGATACAACCATAAAATGAGCCGGCCACCCATAAATTGAGCCGGCTCACACCCATAAATTGAGCGGTACTCTGATCATAGTCAGACCAACATTGCTACGACCCGTATTCGCACCGACAC | -1.65 ± 0.23 | -4.23 ± 0.084
ACATTTGTTGATACAACCAGCAAATGATAATTACACCCATAAATTGATAATTATCACACCCATAAATTGATATTGCCTCTGATCATAGTCAGACCAACATTGCTACGACCCGTATTCGCACCGACAC | -3.07 ± 0.51 | -2.72 ± 0.21
ACATTTGTTGATACACCCATAAAATGATAATTACAACCATAAATTGATAATTATCACAACCATAAATTGATATTGCCTCTGATCATAGTCAGACCAACATTGCTACGACCCGTATTCGCACCGACAC | -0.642 ± 0.019 | -0.707 ± 0.2

Sequence | relative integration efficiency (log2) [1] | relative integration efficiency (log2) [2]
ACATTTGTTGATACAACCATAAAATGATAATTACAACCATATATTGATATCTCTCACACCCATAAATTGATATTGCCTCTGATCATAGTCAGACCAACATTGCTACGACCCGTATTCGCACCGACAC | 0.0992 ± 0.38 | -0.424 ± 0.15
ACATTTGTTGATACACCCATAAATTGATATTGCCACCCATAAATTGATATTGCTCAGTGGGTATTTAACTATAACGCTCTGATCATAGTCAGACCAACATTGCTACGACCCGTATTCGCACCGACAC | 2.19 ± 0.12 | -1.66 ± 0.34
ACATTTGTTGATACAACCATAAAATGATAATTTGACCCATAAATTGATAATTATCACACCCATAAATTGATATTGCCTCTGATCATAGTCAGACCAACATTGCTACGACCCGTATTCGCACCGACAC | -0.216 ± 0.13 | -0.692 ± 0.19
ACATTTGTTGATACAACCATAAAATGATCATTACCCCCATCAATTGATAATTATCCCACCCAATTTAACTATAACGCTCTGATCATAGTCAGACCAACATTGCTACGACCCGTATTCGCACCGACAC | 0.227 ± 0.14 | -3.71 ± 0.29
ACATTTGTTGATACAACCATAAAATGATAATTACCCCCATAAATTGATAATTATCCCACCCCATTTAACTATAACGCTCTGATCATAGTCAGACCAACATTGCTACGACCCGTATTCGCACCGACAC | 1.82 ± 0.11 | -1.32 ± 0.25
ACATTTGTTGATACAACCATAAAATGATAATTACACCCATAAATTGATAATTATCACACCACGCAATTGATATTGCCTCTGATCATAGTCAGACCAACATTGCTACGACCCGTATTCGCACCGACAC | 2.1 ± 0.088 | -0.677 ± 0.11
ACATTTGTTGATACAACCAATAAATGATAATTACACCCATTAATTGATAATAATGACACCGAATTTAACTATAACGCTCTGATCATAGTCAGACCAACATTGCTACGACCCGTATTCGCACCGACAC | 1.91 ± 0.054 | -1.48 ± 0.29
ACATTTCTTCATACAACCATAAAATGATAATTACACCCATAAATTGATAATTATCACACCCAATTTAACTATAACGCTCTGATCATAGTCAGACCAACATTGCTACGACCCGTATTCGCACCGACAC | -2.1 ± 0.57 | -3.68 ± 0.52
ACATTTGTTGATACAACCATAAAATGATAATTACACCCATAAATTGATCCTTATCACACCCATAAATTGATATTGCCTCTGATCATAGTCAGACCAACATTGCTACGACCCGTATTCGCACCGACAC | -0.418 ± 0.47 | -0.973 ± 0.3
ACATTTGTTGATACAACCATAAAATCATCATTACCCCCATAAATTGATAATTATCACACCCCATTTAACTATAACGCTCTGATCATAGTCAGACCAACATTGCTACGACCCGTATTCGCACCGACAC | -0.211 ± 0.014 | -3.71 ± 0.07
ACATTTGTTGATACAACCATCAAATGGTAATTACACCCCTACATTGATAATTATCACACCCAATTTAACTATAACGCTCTGATCATAGTCAGACCAACATTGCTACGACCCGTATTCGCACCGACAC | -3.18 ± 1.1 | -5.5 ± 0.092
ACATTTGTTGATACAACCATAAAATGATAATTAATAATTATTTATAACACCCATAAATTGATAATTATCACACCCATAAATTGATATTGCCTCTGATCATAGTCAGACCAACATTGCTACGACCCGT | -0.494 ± 0.28 | -3.19 ± 0.2
ACATTTGTTGATACAACCATTAAATGATAATTCCACCCATACATTGATAATTATCACACCCAATTTAACTATAACGCTCTGATCATAGTCAGACCAACATTGCTACGACCCGTATTCGCACCGACAC | 0.395 ± 0.29 | -2.63 ± 0.34
ACATTTGTTGATACAACCATAAAATGATAATTAATAATTATTTATAATCACCCATAAATTGATAATTATCACACCCATAAATTGATATTGCCTCTGATCATAGTCAGACCAACATTGCTACGACCCG | 0.877 ± 0.18 | -2.92 ± 0.3
ACATTTGTTGATACAACCATAAAATGAATTATACACCCATAAATTGATAATTATCACACCCATAAATTGATATTGCCTCTGATCATAGTCAGACCAACATTGCTACGACCCGTATTCGCACCGACAC | -0.0536 ± 0.3 | -0.7 ± 0.18
ACATTTGTGGATACAACCATAAAATGATAATTACACCCATAAATTGATCATTATCACACCCAATTTAACTATAACGCTCTGATCATAGTCAGACCAACATTGCTACGACCCGTATTCGCACCGACAC | 1.89 ± 0.19 | -1.46 ± 0.31
ACATTTGTTGATACAACCATAAAATCATAATTACCCCCATAAATTGATAATTATCCCACCCAATTTAACTATAACGCTCTGATCATAGTCAGACCAACATTGCTACGACCCGTATTCGCACCGACAC | 3.39 ± 0.37 | -0.611 ± 0.71
